Experimental data from article PMC3926955 (The Journal of Cell Biology, 2014).
Numbering of substitutions follows the chain as printed. Numbers in names are those of the source. One block for each binder: values may come before it.

Biological target: T1, GST-Pex3ΔN (aa 41–455, cytosolic domain) (P. pastoris, UniProt Q92262 41-455)
T1 sequence (looked up): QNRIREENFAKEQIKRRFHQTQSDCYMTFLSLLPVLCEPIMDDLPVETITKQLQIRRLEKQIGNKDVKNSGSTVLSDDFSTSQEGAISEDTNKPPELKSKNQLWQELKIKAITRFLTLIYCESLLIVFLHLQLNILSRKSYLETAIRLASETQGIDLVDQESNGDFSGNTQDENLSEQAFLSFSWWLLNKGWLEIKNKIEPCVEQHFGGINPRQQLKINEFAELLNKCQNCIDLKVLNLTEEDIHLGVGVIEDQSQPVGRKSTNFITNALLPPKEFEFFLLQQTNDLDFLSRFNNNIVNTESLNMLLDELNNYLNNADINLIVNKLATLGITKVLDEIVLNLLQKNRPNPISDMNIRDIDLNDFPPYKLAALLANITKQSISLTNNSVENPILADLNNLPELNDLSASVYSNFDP
Assay: pull-down

binding result: binds
B1: His-Atg37ΔC (WT) (domain or fragment, P. pastoris, UniProt C4R8D7 1-278, looked up)
chain: MSESIDRVFVKAIGTIRTLSSRTGYGGLPRPPIENRVKLYGLYKQATEGDVAGVMERPLGDSPEAEAAKRKWDAWRSEQGTSKTEAKRQYISYLIDTMKQFASDTTEARELLSELEYLWNQISDVSPNDSSDSESNAGPAQLLQNHAQLLSRDISVVDDPITSSGMDPMYNPSFQRHNSSRFINASTAERLNSLSNYYSNLNPTPPLSSRRYQGSVTPRNVDFIKWQNDINNSINKLNHDLQLLANRRLQSSASDPLYSKRGSDLTHDDFVNDISSSS

binding result: binds
B2: His-Atg37ΔC acbs mutant (Y40F K44A) (domain or fragment, P. pastoris, UniProt C4R8D7 1-278, looked up)
chain: B1 chain with Y40F, K44A
